{"source": "paper PMC3145628", "about": "“A Rice Plastidial Nucleotide Sugar Epimerase Is Involved in Galactolipid Biosynthesis and Improves Photosynthetic Efficiency” (PLoS Genetics, 2011)", "proteins": {"B1": {"name": "PHD1 (PHOTO… …1) (Oryza sativa Japonica Group) (protein)", "chain": "DDTGVKMAGSDIVGKNDLLIVGPGVLGRLVAEKWQEEHPGCKVFGQTASTDHHNELSNIGIIPSLKGSTFPQKVPYVIFCAPPSRSDDYPGDVRVAASNWTGEGSFVFTSSTALYDCSDNELCNEDCPSVPIGRSPRTDVLLKAENVVLEAGGCVLRLAGLYKIDRGAHFFWLRKGTLDTRPDHIINQIHYEDAASLAIAIMKKGHRGRIFLGCDNKPLSRQEIMDSVNRSGKFDTKFQGFTGTDGPLGKKMENSRTRSEIGWEPKYPSFTEFLGLDS", "notes": "mature protein without putative N-terminal 62-aa chloroplast transit peptide (full length 340 aa); expressed in E. coli; pGEX-4T-1 (GST) in BL21(DE3), glutathione Sepharose purified (described for antibody production)"}}, "substrate": "O=c1ccn([C@@H]2O[C@H](COP(=O)(O)OP(=O)(O)O[C@H]3O[C@H](CO)[C@H](O)[C@H](O)[C@H]3O)[C@@H](O)[C@H]2O)c(=O)[nH]1", "assay": "purified protein", "format": "biochemical, Oryza sativa", "conditions": "30°C, 100 mM glycine buffer pH 8.7, 1 mM NAD+, UDP-Gal varied 0.4-3.2 mM", "data": [{"protein": "B1", "values": [{"measurement": "Km", "value": 840, "unit": "µM"}]}]}
